Read-outs that look alike come from different tables or passages of the source.
Experiments:
[1] = tested on: BCG attachment to fibronectin; type: binding, M. bovis BCG; conditions: recombinant FAP 1 μM or peptide, 90 minutes, 37° C.; FIG. 4
human fibronectin = target: T1, human fibronectin (Homo sapiens, UniProt P02751); experiment: Attachment of FAP to fibronectin (biotinylated fusion proteins on coated wells); type: binding
T1 construct: purchased Collaborative Biomedical Products, Bedford, Mass
Protocol: Ninety-six-well Immulon II plates (Dynatech, Chantilly, Va.) were coated with 1 μg of human fibronectin (Collaborative Biomedical Products, Bedford, Mass.) or bovine serum albumin (BSA) at 37° C. overnight. Recombinant FAP-B, FAP-A, and β-galactosidase fusion proteins were produced in the pTrcHis vector and purified as described for FAP-B, were biotinylated with NHS-LC-Biotin (Pierce, Rockford, Ill.). Biotinylated FAP-B, FAP-A and β-galactasidase fusion proteins (0.5 μg and 2 μg) were added to wells coated with fibronectin or BSA and incubated at 25° C. for 1 hour. The bound fusion proteins were detected with streptavidin-HRP (1:10,000 dilution; Pierce) and o-phenylenediamine dihydrochloride (Sigma) substrate.

T1 sequence (P02751 32-2477): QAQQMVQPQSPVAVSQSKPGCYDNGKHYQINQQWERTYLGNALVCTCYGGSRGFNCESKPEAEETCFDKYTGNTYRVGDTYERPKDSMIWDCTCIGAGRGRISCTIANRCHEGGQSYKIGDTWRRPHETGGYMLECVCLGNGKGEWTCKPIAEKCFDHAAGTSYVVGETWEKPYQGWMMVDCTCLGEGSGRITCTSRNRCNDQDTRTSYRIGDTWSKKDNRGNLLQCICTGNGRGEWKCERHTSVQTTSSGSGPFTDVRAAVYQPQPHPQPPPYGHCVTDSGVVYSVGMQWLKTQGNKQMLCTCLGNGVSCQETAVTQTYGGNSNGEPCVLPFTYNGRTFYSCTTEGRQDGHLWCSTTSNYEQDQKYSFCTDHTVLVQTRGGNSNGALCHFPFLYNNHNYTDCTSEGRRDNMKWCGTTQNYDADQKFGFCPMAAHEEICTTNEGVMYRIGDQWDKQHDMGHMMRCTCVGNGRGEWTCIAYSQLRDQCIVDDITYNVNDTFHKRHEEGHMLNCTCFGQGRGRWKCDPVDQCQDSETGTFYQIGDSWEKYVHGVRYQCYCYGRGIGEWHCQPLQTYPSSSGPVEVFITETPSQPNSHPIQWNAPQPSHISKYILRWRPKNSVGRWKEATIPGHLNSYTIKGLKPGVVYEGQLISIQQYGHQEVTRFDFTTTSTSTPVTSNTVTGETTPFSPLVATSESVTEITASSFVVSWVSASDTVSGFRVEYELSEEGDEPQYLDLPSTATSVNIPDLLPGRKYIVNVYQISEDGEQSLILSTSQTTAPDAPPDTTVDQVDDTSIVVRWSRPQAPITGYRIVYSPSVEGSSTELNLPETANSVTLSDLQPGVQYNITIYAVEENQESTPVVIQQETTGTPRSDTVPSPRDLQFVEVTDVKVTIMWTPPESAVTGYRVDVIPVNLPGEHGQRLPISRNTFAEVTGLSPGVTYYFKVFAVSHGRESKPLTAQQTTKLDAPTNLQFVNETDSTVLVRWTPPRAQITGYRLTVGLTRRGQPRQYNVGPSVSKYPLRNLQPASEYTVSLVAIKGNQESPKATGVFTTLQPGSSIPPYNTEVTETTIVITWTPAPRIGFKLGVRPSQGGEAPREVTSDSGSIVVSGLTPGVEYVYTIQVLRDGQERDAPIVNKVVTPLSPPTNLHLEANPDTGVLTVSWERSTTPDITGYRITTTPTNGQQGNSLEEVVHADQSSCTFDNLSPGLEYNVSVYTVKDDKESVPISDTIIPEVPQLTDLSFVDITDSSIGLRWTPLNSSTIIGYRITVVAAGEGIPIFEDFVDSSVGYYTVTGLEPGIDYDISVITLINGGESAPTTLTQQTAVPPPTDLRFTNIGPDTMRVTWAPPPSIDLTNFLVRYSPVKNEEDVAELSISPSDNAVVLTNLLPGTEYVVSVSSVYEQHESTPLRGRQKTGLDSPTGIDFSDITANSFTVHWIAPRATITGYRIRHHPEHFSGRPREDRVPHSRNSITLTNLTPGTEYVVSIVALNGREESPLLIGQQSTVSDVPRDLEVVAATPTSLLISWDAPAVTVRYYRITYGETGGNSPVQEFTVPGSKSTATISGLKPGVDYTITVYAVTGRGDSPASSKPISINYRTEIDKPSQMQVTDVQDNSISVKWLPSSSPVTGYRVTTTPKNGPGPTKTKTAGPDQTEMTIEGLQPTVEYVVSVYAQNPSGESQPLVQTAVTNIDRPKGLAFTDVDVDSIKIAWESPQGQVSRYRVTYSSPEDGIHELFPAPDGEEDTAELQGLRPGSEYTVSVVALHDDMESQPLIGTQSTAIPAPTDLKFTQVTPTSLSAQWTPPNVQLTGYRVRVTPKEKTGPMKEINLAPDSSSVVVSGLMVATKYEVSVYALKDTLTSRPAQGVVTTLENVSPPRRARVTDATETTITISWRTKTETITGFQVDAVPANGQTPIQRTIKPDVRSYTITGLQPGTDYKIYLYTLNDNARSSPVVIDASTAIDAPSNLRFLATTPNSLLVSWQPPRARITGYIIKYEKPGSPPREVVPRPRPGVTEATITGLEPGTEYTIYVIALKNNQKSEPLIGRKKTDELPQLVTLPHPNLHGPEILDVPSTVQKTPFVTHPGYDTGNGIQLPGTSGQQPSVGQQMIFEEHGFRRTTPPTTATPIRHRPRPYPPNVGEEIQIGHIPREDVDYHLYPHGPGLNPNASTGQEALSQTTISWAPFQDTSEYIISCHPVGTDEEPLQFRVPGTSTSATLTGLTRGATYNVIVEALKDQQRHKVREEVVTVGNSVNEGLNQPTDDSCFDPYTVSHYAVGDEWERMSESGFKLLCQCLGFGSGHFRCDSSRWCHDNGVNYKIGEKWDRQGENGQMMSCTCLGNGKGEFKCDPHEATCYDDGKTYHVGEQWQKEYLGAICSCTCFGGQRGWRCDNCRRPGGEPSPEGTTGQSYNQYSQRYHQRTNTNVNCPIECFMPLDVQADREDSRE

## FAP-A269-292: Synthesized peptide of amino acids 269-292 of FAP-A, a conserved fibronectin binding region (GNRQRWFVVWLGTSNDPVDKVAAK)
[1]
  inhibition of BCG attachment to fibronectin: inhibit BCG attachment to fibronectin in an equivalent manner

## β-galactosidase: Control recombinant β-galactosidase fusion protein produced in the pTrcHis vector
Human fibronectin
  binding to fibronectin-coated wells: did not bind to fibronectin

B1: FAP-A: Fibronectin attachment protein produced by M. avium (SEQ ID NO:5, GenBank AAB50543), recombinant fusion protein (protein, listed as Mycobacterium avium)
chain: MDQVEATSTRRKGLWTTLAITTVSGASAVVIALPETSHADPEVPTPVPPSTATTPHPRRRRIPGQPADNAQAGAPAPAPNGQQRPPRRRRMIPTRAPPPAGAPPNGAPPAAPNGAPPPPVDPNAPPPPPADPNAGRIPNSYVLPAGWVESDASHLDYGSALLSKVTGPPPMPDQPPPVANDTRIVMGRVDQKLYASAEANNAKAAVGLGSDMGEFFMPYPGTRINQDSTPLNGANGSTGSASYYEVKFSDASKPNGQIWTGVIGSANAGNRQRWFVVWLGTSNDPVDKVAAKALAESIQAWTPPPAPPAAPGGPGAPAPGAPGAPAPGAPAAPGVTAPAAPAPAAPGAPAAPGAPAPEPGQAPAVEVSPTPTPTPQQTLSA
modifications: recombinant fusion partner
Human fibronectin; biotinylated fusion proteins 0.5 μg and 2 μg, 25° C., 1 hour, FIG. 2
  binding to fibronectin-coated wells: bound to wells coated with fibronectin
[1]
  inhibition of BCG attachment to fibronectin: inhibit BCG attachment to fibronectin in an equivalent manner
